{"source": "patent US5804555A", "about": "“Antioxidant” (Morinaga Milk Industry Co., Ltd., priority 1992, dated 1998)", "molecules": {"B1": {"name": "Sample 3: Test 1 Sample 3: bovine lactoferrin (Sigma Company) added to linoleic acid (protein)", "chain": "APRKNVRWCTISQPEWFKCRRWQWRMKKLGAPSITCVRRAFALECIRAIAEKKADAVTLDGGMVFEAGRDPYKLRPVAAEIYGTKESPQTHYYAVAVVKKGSNFQLDQLQGRKSCHTGLGRSAGWIIPMGILRPYLSWTESLEPLQGAVAKFFSASCVPCIDRQAYPNLCQLCKGEGENQCACSSREPYFGYSGAFKCLQDGAGDVAFVKETTVFENLPEKADRDQYELLCLNNSRAPVDAFKECHLAQVPSHAVVARSVDGKEDLIWKLLSKAQEKFGKNKSRSFQLFGSPPGQRDLLFKDSALGFLRIPSKVDSALYLGSRYLTTLKNLRETAEEVKARYTRVVWCAVGPEEQKKCQQWSQQSGQNVTCATASTTDDCIVLVLKGEADALNLDGGYIYTAGKCGLVPVLAENRKSSKHSSLDCVLRPTEGYLAVAVVKKANEGLTWNSLKDKKSCHTAVDRTAGWNIPMGLIVNQTGSCAFDEFFSQSCAPGADPKSRLCALCAGDDQGLDKCVPNSKEKYYGYTGAFRCLAEDVGDVAFVKNDTVWENTNGESTADWAKNLNREDFRLLCLDGTRKPVTEAQSCHLAVAPNHAVVSRSDRAAHVKQVLLHQQALFGKNGKNCPDKFCLFKSETKNLLFNDNTECLAKLGGRPTYEEYLGTEYVTAIANLKKCSTSPLLEACAFLTR"}}, "assay": "Test 1: antioxidant effect on linoleic acid, peroxides by ferric thiocyanate method", "assay_type": "biochemical", "conditions": "0.2% added to linoleic acid, 60° C.", "experimental": "A sample was prepared by adding dl-α tocopherol (manufactured by Wako Jun-yaku Kogyo Company), bovine lactoferrin (manufactured by Sigma Company), hydrolysate of lactoferrin (prepared by the same method as in the Example 2), or peptide (prepared by the same method as in the Example 3) to a final concentration of 0.2% (weight percentage; same applies hereafter except for the degree of decomposition) to commercially available linoleic acid (manufactured by Wako Jun-Yaku Kogyo Company) containing no additive. Hereafter, the thus prepared samples are individually referred to as […].\nAntioxidant effect of the individual samples was tested by the method of Mitsuda et al.(Eiyo to Shokuryo, Vol. 19, p. 210, 1966) described below.\nThe above-mentioned samples were added to a mixed solution containing 10 ml of ethanol, 10 ml of 0.1M phosphate buffer solution (pH: 7.0), and 5 ml of deionized water so as to achieve a final concentration of linoleic acid of […](mol/l). This solution was placed in a vial bottle having a capacity of 50 ml, and the closely plugged bottle was held in an incubator at 60° C. The total volume was always adjusted to 25 ml by reducing the above-mentioned ionized water, depending upon the quantity of added sample. At prescribed time intervals, 0.1 ml was sampled from this vial bottle to measure the quantity of peroxides by the following ferric thiocyanate method.\nTo the sample solution in an amount of 0.1 ml, 4.7 ml of 75% ethanol, 0.1 ml of 30% ammonium rhodanide, and 0.1 ml of 3.5% hydrochloric acid solution of 2×10^-2 M ferrous chloride were added, and absorbance at 500 nm was measured upon the lapse of just three minutes.", "data": [{"molecule": "B1", "values": [{"measurement": "Degree of peroxidation (absorbance at 500 nm)", "setting": "period of preservation 0 days", "value": 0}, {"measurement": "Degree of peroxidation (absorbance at 500 nm)", "setting": "period of preservation 3 days", "value": 0.23}, {"measurement": "Degree of peroxidation (absorbance at 500 nm)", "setting": "period of preservation 6 days", "value": 0.30}, {"measurement": "Degree of peroxidation (absorbance at 500 nm)", "setting": "period of preservation 10 days", "value": 0.31}, {"measurement": "Degree of peroxidation (absorbance at 500 nm)", "setting": "period of preservation 13 days", "value": 0.32}]}]}
